We go through 69 sequences from the domain aggregation screens of Martell et al. (2025).

The nature of this series: soluble fraction after stress (log2 fold change); higher = more stays soluble; pooled small domains, quantitative proteomics. To be noted: stress: 50 degC. In short, it runs like this: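 Pooled custom libraries of small protein domains were measured in a high-throughput format, with quantitative proteomics as the read-out. Each library was stressed at 50°C. Aggregation propensity is given as the base-two logarithm of the fold change in how much of each protein stays soluble after the stress. Higher values mean a larger share of the protein remains in solution.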
Take “HMPSALGDKIRAARKALKLSLEDLAEKVSSSKSYMWELENRDEPNPGADLLMRIAAALNVTTEHLLGP”: the “soluble fraction (log2)” value is -0.0736. For “HMPSDLQATLRAVQGMLQGVEGVDARLAGQRILLEGDSADARARERAAAIAGIFPGVVIDFVG”, the “soluble fraction (log2)” value was -0.155. As for “HMPSEAVQNIIGNVKSKRRVATIGQARGLASNVIKEGKFDNVSNTAMVNRLIDLGIISNSIGYQ”, the “soluble fraction (log2)” value turned out to be 0.115. Turning to “HMPSEQGANKARDIIFRHHMKVDVWVGSWENARNYAEQAIKQGVKVIISRGGTAALLRHSLDTAIIKVR”, the “soluble fraction (log2)” value turned out to be 0.0222. The figure for “HMPSGLFEPIKKSELSIESIDLLKDQIRAFKQADIRITFGFLLDLITKGENPAYVNASKLFEQAWER” is 0.0685. In the case of “HMPSPSTLAKVDPFLLVTNADSLLMARPDDSELRAAIITAHINLAKTNNSVDHYKEVLKIEPQNALANYN”, the “soluble fraction (log2)” value turned out to be 0.0175.

“HMPSPTPEQVLKAFTDAAMQKNTVEELKQAFAKAWKMLEGTPEQHKAQDVYNIRRDELEGAA”: the “soluble fraction (log2)” value is -0.173. As to “HMPSSIEGIEKYLGSGMIRGIGAVYAKRLVKQFGKDVFDIIEETPERLREVEGIGPIRAARIISGWADQ”, the “soluble fraction (log2)” value was -0.41.

Regarding “HMPTITSPMVGTFYRAPSPGAAPFIEVGDTVKKGQVIGIIEAMKLLNEVEADKDGVVQAFAAENGEL”, the “soluble fraction (log2)” value stood at 0.262. The same measure for “HMPTLNIVDGHIAASDGVRILSIHNVTGRRYATSSKLPAGIYIVVLMPAKAETPLTVKVIVEA”: -1.6; for “HMPTMTDIPIKIIRSRRRTLAIEVREGGEVIVRAPLYSRKAEIDAFVKAHENWIITKYNLMITKQN”: -1.74; for “HMPTPRVPMSKQRQILQLLQDGHLSTREIAAALHISKTSVGDIAKAARLAGLDWEAASKLSDEELSARIYK”: -0.00175.

Consider “HMPTSPKANFLKELPQEFTRKQAVTIGDKLNIKERTVDNYLAKLEQAGYLVKPKAGYYQKIKS”, for which the “soluble fraction (log2)” value was 0.128. Turning to “HMPTTTFENLPDAKKKTIIAALLKEFSQSPLSKAQVAPIVKESQIARGAFYKYFVDLTDAYTYLYRQ”, the “soluble fraction (log2)” value is -0.204. With “HMPTVLKQGSTGQEVKELQQALSKLGYRVTVTGEFDTATHYGVVRFQRKHRLTIDGIVGPQTLSKIRAHQK”, the “soluble fraction (log2)” value is -2.86.

As to “HMPVAPTYALTVKTDPPSANVRLLNSPTPYQPGVRLPSGNYDIEVTQSGYATRKESVRIADRDVALNIAL”, the “soluble fraction (log2)” value was 0.163. The same measure for “HMPVASNRDVNLDIGERVFVQEWAPNRTARVQYRGSPWEARLAPGAPAAAGEHRVSAVEGNWLVLEPA”: -0.0102. “HMPVEFVKISIKPGHPWENQFVRDIVSLPDLLMVLILRGEERIIPNGNTKILVGDKIVLSALSPG”: the “soluble fraction (log2)” value was -0.779. The figure for “HMPVEHVWHIAENGQTSGPYSKARMGRMAQEGQLTRDTHVWTPGQDGWMRAGDVTELAQLFT” is 0.0486; for “HMPVFSLTPRELEILEWMSTPNTYRQIAAQLSVSEETVRSHAKNILEKMRQPNRAQAVLAAVKMGLIKL” it is -0.819. For the sequence “HMPVISGQDLRVLIRDTGRERDQGISFLDDGTMVVVEDARRLIGQEVTATVTRVHQTQTGRIVFAHLSN”, the “soluble fraction (log2)” value worked out at 0.0684. “HMPVPSPAEQTATQLANIERHTGITVDGWTRAIAEAGAAKHGEIVAWLKQQGLTHGNANALAHAVRARQSG”: the “soluble fraction (log2)” value worked out at 0.27. With “HMPVQSNRDALLDIGQTLQVQAWDAQGSARVSYRGSDWTAEFRGPGAAAPGLHRIIAVQGNRLIVEPA”, the “soluble fraction (log2)” value is 0.174. On to “HMPVRIYEISKKLGLENKEVLATAKSLGIAAAKVPSSSLDKITAEYLEEEILKSHPEVAARLK”, for which the “soluble fraction (log2)” value is 0.329. As for “HMPVYEEEVPAALDGQRLDRVVAMVTGLSRSEVGALLAAGAVTVDGTTPAKGSVRLAAGSIVSVTVS”, the “soluble fraction (log2)” value is -0.145. In the case of “HMQAATGVVTASVLNIRQGPGTNYTKVGSLLKGAQVEIVGQNGAWSKIRLKSGITGWVNSSYLKTST”, the “soluble fraction (log2)” value was -0.0664. For the sequence “HMQAGPEDIIRAKLKTAMPEAQIISIRPTPAGLYQVNAKGYESVFVTADGRYLFQGDLLEIQGDRIVNL”, the “soluble fraction (log2)” value is -0.123. For the sequence “HMQAKNGTVTGSVVNVRGGAGTQYAVKGKASRGTKVTILGQQSSWLNVRLDNGVTGWIHADYVQISE”, the “soluble fraction (log2)” value came to 0.463. “HMQAPHLALSPREFQVLQGLLAGDALDIIAERLHLSAKTVSNHQTLIRQKLGVGNAVELLRYAQLHRL”: the “soluble fraction (log2)” value is -2.15.

For the sequence “HMQAPIFMNETDGKWYFREKYLNDNHEIAYRVHPEGYDQMEDALRNSVNALNEFAAEMKELRKQV”, the “soluble fraction (log2)” value was -0.0683. The figure for “HMQAPVVNHDLIKSFERQWREIKATAKGKVRSVNLSDARSILQSFLNTLQKGPGTDSLISSVQNELSLIA” is -0.00186. The figure for “HMQARDQNVDEGKALLEKEFSRLALENLDRDKLANAVNYPTRDDMYAAIGAGDLRVGQVLHQAQQLF” is 0.142; for “HMQASTGNVNTETLNLRKEASTSADILKLLSQGDEVEIVSESNGWYKVKYKDTEGFVSKEYITVN” it is 0.245. Take “HMQATETFSLIVPMSSAGNRLDVVLSELLPNFSRKKIQDAIKNGDATLNGKAPKIRDKVYGGENITITLIL”: the “soluble fraction (log2)” value is -0.432. “HMQAVDPLELRAGDFVVHEQHGIGRYVEMVQRTIGGITREYLVIEYAPAKRGQPNDRVFVPTDTLEQVS”: the “soluble fraction (log2)” value is -0.514. Regarding “HMQAVKQIKVERGMTLEKIAQSEFGDSTRWGEIVEVNNLRAPYISDDPTETRDGVLKPGSNLLIPIP”, the “soluble fraction (log2)” value amounted to 0.094.

Regarding “HMQDEAQLSMSNKYIFEGNSIVKDNFIEAEKKYRLGVSAKPNNAVGSYNLANAYYNSKLYDEAMLRLL”, the “soluble fraction (log2)” value turned out to be 0.272. The same measure for “HMQDEREEIAVEDVVGMPLWQARKVIADQGFRVLDDGAGDIVIAQMPSGGGKLIEGGQVMLYTYTD”: 0.186; for “HMQDFEEILKNAKIEDFKHTQTGEDLKVLKIEDKIEDFKGFNAYLVKNQIAYYSKFARGFVVKNIEKLQGV”: 0.0429.

On to “HMQDFEQNLFDGKSIYDRMLSKFSLHNVDVKQLVAHFKRKDTEQFFADIGRGLITSAQMLGFLQT”, for which the “soluble fraction (log2)” value was -0.289.

“HMQDLVAVPALTGLTENDAINKAKANNLIAVVSEYKTENSVEPGKVLEQDPESSTEVKKGTIIKLVVS”: the “soluble fraction (log2)” value was at least 0.62. For the sequence “HMQDQVTLIVQVNGKLRGQISISTDATKELIEQTALANENVQKFVDGQSIKKIIIVPGRLVNIV”, the “soluble fraction (log2)” value was -1.12. The figure for “HMQDRDKNVPAGKELLDNEIARLNMSLKQVEQFALPRYNLKTLEDLYSGIGSGDIRLNHLINFLQSKLI” is -0.135. With “HMQDREIHIHAGREVLEKELSRLSLHLKNTNLQEYAARFNVKTAEDILAGIGAGDIRPAHVVNLIADKL”, the “soluble fraction (log2)” value is 0.0629. The same measure for “HMQDSSGENNPQSKLTQQQVDLLMKDLKETNVEFDKLAEKYNVSIKTIRNVNTGIAWRKNDITYPIREP”: -0.204; for “HMQDTQAEEGETLLDALRRIHPESSTGTLRRMLTQGRVQLDGDSVHAAKTVLSAGQRVEVVAR”: 0.0446. For “HMQDTTLTSQILRVPSSVNINDLANVLKSLAGKNTVVAPYKAANTIIITGYAPNVRRVLSLANELIPRLDV”, the “soluble fraction (log2)” value was -0.53. The figure for “HMQEAGLITQRIREMREKENWTQEYMAEQLGMSENGYAKIERGESNLSLKRLQQIADIFEVESAELLK” is 0.0493; for “HMQEDKSKYLFQRGTAITVLRPAGIVRIGKERVDAVSNGSYIDRGVAVRVIEVEGTRVVVEPVPE” it is 0.13; for “HMQEEMIRGDIKLNTVMQTVHLAVGTETERNWQPVETTAKEFELLKLLMENPGVTLKKEYLFHMLI” it is -0.102. In the case of “HMQEESISWKEFLELDIIGDKKKRLKVYDLFHLGYGNAKTLFKRLNMVGISREMIEKELENEGY”, the “soluble fraction (log2)” value is -1.32. Consider “HMQEKIREVANRIRELRESLEVSPEEMADHLKVTIGTYIEYERGEADIPASVLFGIAHRLNVDMAVLL”, for which the “soluble fraction (log2)” value turned out to be 0.142. With “HMQEKLELIIPVSSIGKRADVAIQDLLSSYSRAKIQEWIKSGFILLESKKISPKDIFMGGERVFIDIQQDE”, the “soluble fraction (log2)” value was -1.41. The same measure for “HMQELVPGKVFEGTVTEMKNGQVTLGLSDGKTISARMEQGVSLAKGQPMLFEVKSNTGEQIAIRPVVL”: 0.169; for “HMQENKVLEGKVLEKKKKKVFVDLSPFGVGVIRGVNYLEAKNELKDIEEGDNIKVRVLEIDNENGFIELAL”: 0.271; for “HMQERQREGFVQQLRGKYSGQVVMRLFPELQGKALGEFMRKFEAQWEDHEAVLAAMEAHEIESRLKVFK”: -0.965.

“HMQETALANFETNEGVQKVKQYVQENVPSLRGSNIVGVWTSYTPEGLTNYRTRFLTQDGQFVEVNLAYQ”: the “soluble fraction (log2)” value was 0.036.

Take “HMQETIDVAALRVGMFVHLDLGWLAHPFPLSSFRISSEDQISTIRALGLKRVRWSSQHSELG”: the “soluble fraction (log2)” value was -1.11.

For the sequence “HMQETKDEGAQVLLNKINALVAAVQGQIITPEEAAIKLATDGDLDLDVDARVAAIEEFNKKLSEAQNN”, the “soluble fraction (log2)” value stood at 0.0497. Regarding “HMQEVILEKIQLTYLSADKLSKMAEQFSIPVKMYWVDENPMMLMVMGNESDIATFKKVLTQIDIPENKS”, the “soluble fraction (log2)” value stood at 0.0714.

Turning to “HMQFHQDNYALEFIRDLQPVDGAIILSRFKQFDLVELEKAKKIKFSDEHMAWTLYDYDIKKIN”, the “soluble fraction (log2)” value is -2.3. Turning to “HMQFLKPQDVLFLLKLVVLKGPASIFPAVPESLGLSKAEVHNSAKRVRGARLLPHDSWNPLRKNLLEFL”, the “soluble fraction (log2)” value was -0.148. The figure for “HMQFQVHEIKGKEYYIHVVEKGNTLYAISRMYSVPIETLKEENPRLNTTELTIGDRLLIPLDEVKRKNIE” is -0.128; for “HMQFYSGLEARLMDPNTPEVFDDPISLMAFLQQKNISRVELEDNLLLPYLKEMAGQPIPKAELLEIIRK” it is -0.475. Consider “HMQGDHELSQRILSYLSEQGGSSPLTDKASPEEIYRIFRVSKKKYKQALGNLYKSKSIIILADKIQLL”, for which the “soluble fraction (log2)” value was -0.736.

Regarding “HMQGEDEILKIHEALEELAQIDARLVRVVEMRYFVGLSNQEIADSLGVTTRTVERDWEKARTFLFNALHP”, the “soluble fraction (log2)” value was -1.4. Regarding “HMQGISGIERSLLDALAFEPAGLDALQARTGLDTPTLQALLMGLELQGHVARLPGSLFQRLVR”, the “soluble fraction (log2)” value is -0.523.

“HMQGVTVPDLTRVSLEEAVATISSLGLRYEISDRRSNAAFPANYVLDQAPGANTIVKPNRKVYLTVNAA”: the “soluble fraction (log2)” value worked out at 0.35.

For “HMQGWREWDYSADLYINARVGGKIEPTENSPISRVYELDEPVSVVAFTSTRYFKLSSGDYIFAEYLSAQKV”, the “soluble fraction (log2)” value was -1.2.
